{
  "source": "patent US11026999B2",
  "about": "“Insulin glargine/lixisenatide fixed ratio formulation” (SANOFI-AVENTIS DEUTSCHLAND GMBH, priority 2013, dated 2021)",
  "key": {"type 2 diabetic patients [1]": {"test_system": "type 2 diabetic patients", "assay": "Major cardiovascular events adjudicated by CAC (Example 1)", "set-up": "species or system human", "conditions": "in vivo", "from_the_text": "One patient in the combination group and one patient in the insulin glargine group had respectively two events (hospitalization for unstable angina and percutaneous coronary intervention (PCI]) and one event (PCI) adjudicated as major cardiovascular events by cardiovascular events adjudication committee (CAC)."}, "type 2 diabetic patients [2]": {"test_system": "type 2 diabetic patients", "conditions": "in vivo", "procedure": "Safety: The safety analysis was conducted on the safety population, defined as all randomized patients who received at least one dose of IMP (regardless of the amount of treatment administered). The evaluation of AEs, laboratory, vital sign, and ECG data was descriptive."}, "type 2 diabetic patients [3]": {"test_system": "type 2 diabetic patients", "assay": "Lipase, amylase and calcitonin monitoring (Example 1)", "set-up": "species or system human", "conditions": "in vivo", "from_the_text": "Per protocol, any increase in amylase and/or lipase above twice the upper limit of normal range (ULN) or in Calcitonin ≥20 pg/mL that had been confirmed by a repeat measurement was to be monitored and documented on a specific AE form. […] No patients reported a TEAE of increased calcitonin (≥20 pg/mL).\nThe number of patients who had at least 1 value of lipase or amylase ULN, or at least 1 value of calcitonin ≥20 pg/ml during the on-treatment period was also summarized. One patient in the insulin glargine group had at least 1 value of amylase ≥3 ULN, and 5 patients (4 in the combination group and 1 in the insulin glargine group) had at least 1 value of lipase ≥3 ULN. One patient in the insulin glargine group had 1 value of calcitonin ≥20 pg/ml (but <50 pg/ml) with retested values within the normal range."}, "type 2 diabetic patients [4]": {"test_system": "type 2 diabetic patients", "assay": "Injection site reactions and allergic reactions adjudicated by ARAC (Example 1)", "format": "in vivo, human", "from_the_text": "A total of 6 patients (5 patients in the combination group and 1 patient in the insulin glargine group) experienced injection site reactions (Table 19). None of these reactions were considered serious or severe or led to treatment discontinuation.\nA total of 2 patients (1 [0.6%] in each group) reported 6 events positively adjudicated as allergic reactions by the ARAC with the same diagnosis of allergic rhinitis. None was adjudicated as possibly related to the IMP (table 20)."}, "type 2 diabetic patients [5]": {"test_system": "type 2 diabetic patients", "assay": "Premature treatment discontinuation, patient disposition (Example 1)", "conditions": "human, in vivo", "from_the_text": "During the 24-week study treatment period, 11 (6.8%) combination-treated patients prematurely discontinued the IMP, compared with 3 (1.9%) insulin glargine-treated patients. For combination-treated patients, the most common reasons for treatment discontinuation was “adverse event” (6 patients [3.7%] versus 0 patient in the insulin glargine group) followed by “other reasons” (4 patients [2.5%] versus 2 patients [1.2%] in the insulin glargine group)."}, "[6]": {"conditions": "investigator reported terms, Safety population"}},
  "data": [
    {"substance": "Gly(A21)-Arg(B31)-Arg(B32)-human insulin [Insulin Glargine]", "values": [
      {"measurement": "Events adjudicated as major cardiovascular events by CAC", "setting": "type 2 diabetic patients [1]", "result": "one"},
      {"measurement": "Patients with events adjudicated as major cardiovascular events by CAC", "setting": "type 2 diabetic patients [1]", "result": "one"},
      {"measurement": "TEAE: HLGT: Infections - pathogen unspecified", "setting": "type 2 diabetic patients [2]", "result": "31 (19.1%) n (%)"},
      {"measurement": "TEAE: HLGT: Ocular infections, irritations and inflammations", "setting": "type 2 diabetic patients [2]", "result": "4 (2.5%) n (%)"},
      {"measurement": "TEAE: HLGT: Viral infectious disorders", "setting": "type 2 diabetic patients [2]", "result": "8 (4.9%) n (%)"},
      {"measurement": "TEAE: HLT: Abdominal and gastrointestinal infections", "setting": "type 2 diabetic patients [2]", "result": "1 (0.6%) n (%)"},
      {"measurement": "TEAE: HLT: Conjunctival infections, irritations and inflammations", "setting": "type 2 diabetic patients [2]", "result": "2 (1.2%) n (%)"},
      {"measurement": "TEAE: HLT: Diarrhoea (excl infective)", "setting": "type 2 diabetic patients [2]", "result": "6 (3.7%) n (%)"},
      {"measurement": "TEAE: HLT: Upper respiratory tract infections", "setting": "type 2 diabetic patients [2]", "result": "21 (13.0%) n (%)"},
      {"measurement": "TEAE: HLT: Urinary tract infections", "setting": "type 2 diabetic patients [2]", "result": "3 (1.9%) n (%)"},
      {"measurement": "TEAE: Infections and infestations", "setting": "type 2 diabetic patients [2]", "result": "38 (23.5%) n (%)"},
      {"measurement": "TEAE: Upper respiratory tract infection", "setting": "type 2 diabetic patients [2]", "result": "5 (3.1%) n (%)"},
      {"measurement": "TEAE: Urinary tract infection", "setting": "type 2 diabetic patients [2]", "result": "1 (0.6%) n (%)"},
      {"measurement": "Treatment emergent SAE: HLGT: Infections - pathogen unspecified", "setting": "type 2 diabetic patients [2]", "result": "1 (0.6%) n (%)"},
      {"measurement": "Treatment emergent SAE: HLT: Urinary tract infections", "setting": "type 2 diabetic patients [2]", "result": "1 (0.6%) n (%)"},
      {"measurement": "Treatment emergent SAE: Infections and infestations", "setting": "type 2 diabetic patients [2]", "result": "1 (0.6%) n (%)"},
      {"measurement": "Treatment emergent SAE: Urinary tract infection", "setting": "type 2 diabetic patients [2]", "result": "1 (0.6%) n (%)"},
      {"measurement": "TEAE: HLT: Dental and oral soft tissue infections", "setting": "type 2 diabetic patients [2]; po", "result": "3 (1.9%) n (%)"},
      {"measurement": "Patients with 1 value of calcitonin ≥20 pg/ml (but <50 pg/ml)", "setting": "type 2 diabetic patients [3]", "result": "One"},
      {"measurement": "Patients with TEAE of amylase increased (>2 ULN) reported on the specific AE form", "setting": "type 2 diabetic patients [3]", "result": 1, "unit": "patient"},
      {"measurement": "Patients with TEAE of lipase increased (>2 ULN) reported on the specific AE form", "setting": "type 2 diabetic patients [3]", "result": "1 [0.6%] n (%)"},
      {"measurement": "Patients with at least 1 value of amylase ≥3 ULN", "setting": "type 2 diabetic patients [3]", "result": "One"},
      {"measurement": "Patients with at least 1 value of lipase ≥3 ULN", "setting": "type 2 diabetic patients [3]", "result": 1, "unit": "patients"},
      {"measurement": "Injection site reaction", "setting": "type 2 diabetic patients [4]; ARAC diagnosis terms, Safety population", "result": "0 n (%)"},
      {"measurement": "Rhinitis allergic (ARAC diagnosis ALLERGIC RHINITIS)", "setting": "type 2 diabetic patients [4]; Not related to IMP, Safety population", "result": "1 (0.6%) n (%)"},
      {"measurement": "Events adjudicated as an allergic reaction by ARAC", "setting": "type 2 diabetic patients [4]; Not related to IMP, TEAE period, Safety population", "result": "1 (0.6%) n (%)"},
      {"measurement": "Any injection site reactions", "setting": "type 2 diabetic patients [4]; TEAE period, Safety population", "result": "1 (0.6%) n (%)"},
      {"measurement": "Injection site reactions: PTs coded from the ARAC diagnosis terms", "setting": "type 2 diabetic patients [4]; TEAE period, Safety population", "result": "0 n (%)"},
      {"measurement": "Injection site reactions: PTs coded from the investigator reported terms", "setting": "type 2 diabetic patients [4]; TEAE period, Safety population", "result": "1 (0.6%) n (%)"},
      {"measurement": "Patients who experienced injection site reactions", "setting": "type 2 diabetic patients [4]; in vivo", "result": 1, "unit": "patients"},
      {"measurement": "Injection site pain", "setting": "type 2 diabetic patients [4]; [6]", "result": "1 (0.6%) n (%)"},
      {"measurement": "Injection site pruritus", "setting": "type 2 diabetic patients [4]; [6]", "result": "0 n (%)"},
      {"measurement": "Injection site rash", "setting": "type 2 diabetic patients [4]; [6]", "result": "0 n (%)"},
      {"measurement": "Injection site urticaria", "setting": "type 2 diabetic patients [4]; [6]", "result": "0 n (%)"},
      {"measurement": "Rhinitis allergic (ARAC diagnosis ALLERGIC RHINITIS)", "setting": "type 2 diabetic patients [4]; relationship to study treatment: All, Safety population", "result": "1 (0.6%) n (%)"},
      {"measurement": "Events adjudicated as an allergic reaction by ARAC", "setting": "type 2 diabetic patients [4]; relationship to study treatment: All, TEAE period, Safety population", "result": "1 (0.6%) n (%)"},
      {"measurement": "Patients who prematurely discontinued the IMP", "setting": "type 2 diabetic patients [5]", "result": "3 (1.9%) n (%)"},
      {"measurement": "Treatment discontinuation, reason adverse event", "setting": "type 2 diabetic patients [5]", "result": "0 n (%)"}
    ]}
  ]
}
